Results: US20060134741

T1: Sentrinized PML (construct not stated), P29590
T1 chain: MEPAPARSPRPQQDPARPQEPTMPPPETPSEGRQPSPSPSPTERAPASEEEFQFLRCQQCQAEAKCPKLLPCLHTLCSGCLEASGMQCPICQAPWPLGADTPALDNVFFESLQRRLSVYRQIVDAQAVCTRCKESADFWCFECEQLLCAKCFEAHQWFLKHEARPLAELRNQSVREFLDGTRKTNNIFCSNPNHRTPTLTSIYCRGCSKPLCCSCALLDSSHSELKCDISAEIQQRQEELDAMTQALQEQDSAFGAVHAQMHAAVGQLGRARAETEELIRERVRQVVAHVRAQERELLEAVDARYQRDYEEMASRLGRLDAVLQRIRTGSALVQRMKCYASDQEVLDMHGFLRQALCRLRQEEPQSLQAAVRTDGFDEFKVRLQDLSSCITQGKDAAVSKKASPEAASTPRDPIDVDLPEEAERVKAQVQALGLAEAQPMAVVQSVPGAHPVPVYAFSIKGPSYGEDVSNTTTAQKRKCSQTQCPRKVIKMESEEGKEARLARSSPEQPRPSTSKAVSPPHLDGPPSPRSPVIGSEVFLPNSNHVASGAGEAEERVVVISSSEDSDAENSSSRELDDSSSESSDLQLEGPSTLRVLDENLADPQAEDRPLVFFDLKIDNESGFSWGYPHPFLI

T2: sentrinized RanGAP (construct not stated), P46060
T2 chain: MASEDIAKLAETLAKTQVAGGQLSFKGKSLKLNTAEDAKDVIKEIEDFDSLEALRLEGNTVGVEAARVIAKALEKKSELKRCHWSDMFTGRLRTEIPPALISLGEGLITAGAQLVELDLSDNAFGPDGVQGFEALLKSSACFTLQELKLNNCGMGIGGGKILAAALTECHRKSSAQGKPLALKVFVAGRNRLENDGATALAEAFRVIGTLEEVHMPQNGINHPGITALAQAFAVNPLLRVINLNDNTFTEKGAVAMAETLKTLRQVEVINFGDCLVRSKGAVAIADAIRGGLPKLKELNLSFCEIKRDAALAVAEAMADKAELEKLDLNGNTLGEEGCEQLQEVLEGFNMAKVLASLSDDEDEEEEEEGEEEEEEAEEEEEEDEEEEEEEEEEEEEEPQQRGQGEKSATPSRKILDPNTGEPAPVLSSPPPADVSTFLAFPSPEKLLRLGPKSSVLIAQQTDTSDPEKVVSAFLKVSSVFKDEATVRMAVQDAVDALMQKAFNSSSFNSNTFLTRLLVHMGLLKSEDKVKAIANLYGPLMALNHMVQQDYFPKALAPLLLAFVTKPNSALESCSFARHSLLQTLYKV

B1: SENP2 (protein)
chain: MVTSACNGTRNVAPSGEVFSNSSSCELTGSGSWNNMLKLGNKSPNGISDYPKIRVTVTRDQPRRVLPSFGFTLNSEGCNRRPGGRRHSKGNPESSLMWKPQEQAVTEMISEESGKGLRRPHCTVEEGVQKEEREKYRKLLERLKESGHGNSVCPVTSNYHSSQRSQMDTLKTKGWGEEQNHGVKTTQFVPKQYRLVETRGPLCSLRSEKRCSKGKITDTEKMVGIRFENESRRGYQLEPDLSEEVSARLRLGSGSNGLLRRKVSIIETKEKNCSGKERDRRTDDLLELTEDMEKEISNALGHGPQDEILSSAFKLRITRGDIQTLKNYHWLNDEVINFYMNLLVERNKKQGYPALHVFSTFFYPKLKSGGYQAVKRWTKGVNLFEQEIILVPIHRKVHWSLVVIDLRKKCLKYLDSMGQKGHRICEILLQYLQDESKTKRNSDLNLLEWTHHSMKPHEIPQQLNGSDCGMFTCKYADYISRDKPITFTQHQMPLFRKKMVWEILHQQLL

Key:
[1] = system: sentrin-modified proteins (Sentrin-1 conjugates)
[2] = molecular target: T1, Sentrinized PML (construct not stated), …
[3] = molecular target: T2, sentrinized RanGAP (construct not …)

Molecule	protease activity against sentrin-modified proteins [1]	effect on sentrinized PML [2]	effect on sentrinized RanGAP [3]
HsUlp1 (full length, 371 aa)	extensive studies indicated that HsUlp I had no activity against sentrin-modified proteins	–	–
B1	–	Sentrinized PML, a tumor suppressor that resides in the nucleus, was selectively affected by SENP2	sentrinized RanGAP remained intact
